Measured values reported in PMC4990422, “Coupling between the DEAD-box RNA helicases Ded1p and eIF4A” (eLife, 2016).

Key:
[1] = biological target: HA-tagged Ded1p (His6-Ded1p-HA3) (S. cerevisiae), P06634; assay: pull-down; Ded1p-HA held on anti-HA antibody and Protein G Dynabeads; 300 nM S•Tag-eIF4G or 1500 nM eIF4A added alone; 20 µg/mL RNases A,B; 8°C overnight; washed with HRB-Na100 buffer; Western blot; details: remark: other sources report otherwise
Ded1p-eIF4G complex [2] = biological target: T1, Ded1p-eIF4G complex (S. cerevisiae, UniProt P06634 1-604; P39935 1-952; P07260 1-213); assay: global fit of RNA unwinding time courses to a thermodynamic model; K1/2 of a binding step calculated with the model of Figure 4A; RNA bound to the target before the step, ATP bound to eIF4A; details: both partners purified
T1 construct: Ded1p, S. cerevisiae, wild type, as Wm1; eIF4G1, S. cerevisiae, as in Wm3; eIF4E, S. cerevisiae, as in Wm3; present in the preparations of eIF4G; State of the thermodynamic model; also called DG; DTG; source: formed from the purified recombinant proteins; copies: + +

eIF4G [3] = biological target: T2, eIF4G (S. cerevisiae, UniProt P39935 1-952; P07260 1-213); assay: as above; details: both partners purified
T2 construct: eIF4G1, scaffolding protein of translation initiation, S. cerevisiae; present in the preparations of eIF4G; the model treats G as one unit; also called eIF4G1; S•Tag-eIF4G; source: recombinant, expression and purification previously described (Hilliker et al., 2011)
T2 sequence (looked up) 1: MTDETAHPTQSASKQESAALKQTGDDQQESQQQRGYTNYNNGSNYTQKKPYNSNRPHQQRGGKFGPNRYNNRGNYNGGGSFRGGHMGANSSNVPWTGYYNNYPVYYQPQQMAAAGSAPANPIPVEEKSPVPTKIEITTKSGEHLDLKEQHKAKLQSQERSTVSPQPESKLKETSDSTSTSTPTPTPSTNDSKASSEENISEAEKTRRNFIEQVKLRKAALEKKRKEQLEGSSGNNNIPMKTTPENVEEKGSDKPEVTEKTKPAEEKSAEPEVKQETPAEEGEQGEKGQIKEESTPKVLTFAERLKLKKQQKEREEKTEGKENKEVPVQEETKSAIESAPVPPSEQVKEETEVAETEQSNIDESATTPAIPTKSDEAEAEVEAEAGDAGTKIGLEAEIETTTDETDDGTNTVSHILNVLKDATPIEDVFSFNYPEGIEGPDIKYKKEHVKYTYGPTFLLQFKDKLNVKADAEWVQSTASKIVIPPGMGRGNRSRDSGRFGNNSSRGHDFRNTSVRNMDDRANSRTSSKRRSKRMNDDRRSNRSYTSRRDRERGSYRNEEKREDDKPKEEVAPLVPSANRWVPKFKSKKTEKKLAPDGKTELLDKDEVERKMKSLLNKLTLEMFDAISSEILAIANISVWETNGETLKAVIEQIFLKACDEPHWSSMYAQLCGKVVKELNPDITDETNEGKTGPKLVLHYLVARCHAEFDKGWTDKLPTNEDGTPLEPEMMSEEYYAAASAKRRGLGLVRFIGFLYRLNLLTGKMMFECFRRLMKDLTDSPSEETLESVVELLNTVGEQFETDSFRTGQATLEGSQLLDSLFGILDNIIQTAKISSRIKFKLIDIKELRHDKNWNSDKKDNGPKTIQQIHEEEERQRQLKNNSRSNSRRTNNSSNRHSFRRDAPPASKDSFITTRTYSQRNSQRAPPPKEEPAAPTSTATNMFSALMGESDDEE
T2 sequence (looked up) 2: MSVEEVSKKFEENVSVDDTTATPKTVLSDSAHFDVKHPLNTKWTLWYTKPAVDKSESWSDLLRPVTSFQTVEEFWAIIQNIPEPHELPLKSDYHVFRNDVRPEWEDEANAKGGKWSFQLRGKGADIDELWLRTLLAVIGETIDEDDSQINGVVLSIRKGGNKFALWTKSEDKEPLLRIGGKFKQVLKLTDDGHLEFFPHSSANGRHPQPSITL

Ded1p-eIF4G complex [4] = biological target: T1, Ded1p-eIF4G complex; assay: global fit of RNA unwinding time courses to a thermodynamic model; K1/2 of a binding step calculated with the model of Figure 4A; step without RNA, ATP bound to eIF4A; details: both partners purified
eIF4G [5] = biological target: T2, eIF4G; assay: as above; details: both partners purified
Ded1p-eIF4G complex [6] = biological target: T1, Ded1p-eIF4G complex; assay: global fit of RNA unwinding time courses to a thermodynamic model; K1/2 of a binding step calculated with the model of Figure 4A (Kintek Global Explorer; 16 bp duplex, 25 nt 3' overhang); step without RNA and without ATP; details: both partners purified
eIF4G [7] = biological target: T2, eIF4G; assay: as above; details: both partners purified
[8] = biological target: Ded1p (wild type, N-terminal His6-tag) (S. cerevisiae), P06634; assay: cross-linking; formaldehyde 1% (v/v), 30 min, room temperature; Ded1p 0.3 µM, eIF4A 2 µM or as indicated, RNA 2 µM (16 bp, 25 nt 3'-overhang), 0.5 mM ADPNP-MgCl2, unwinding buffer; Western blot with α-Ded1p; details: remark: other sources report otherwise
Ded1p-eIF4G complex [9] = biological target: T1, Ded1p-eIF4G complex; assay: global fit of RNA unwinding time courses to a thermodynamic model; K1/2 of a binding step calculated with the model of Figure 4A; RNA bound to the binder before the step, no ATP; details: both partners purified
eIF4G [10] = biological target: T2, eIF4G; assay: as above; details: both partners purified

T1 sequence (P06634 whole entry, one chain of several): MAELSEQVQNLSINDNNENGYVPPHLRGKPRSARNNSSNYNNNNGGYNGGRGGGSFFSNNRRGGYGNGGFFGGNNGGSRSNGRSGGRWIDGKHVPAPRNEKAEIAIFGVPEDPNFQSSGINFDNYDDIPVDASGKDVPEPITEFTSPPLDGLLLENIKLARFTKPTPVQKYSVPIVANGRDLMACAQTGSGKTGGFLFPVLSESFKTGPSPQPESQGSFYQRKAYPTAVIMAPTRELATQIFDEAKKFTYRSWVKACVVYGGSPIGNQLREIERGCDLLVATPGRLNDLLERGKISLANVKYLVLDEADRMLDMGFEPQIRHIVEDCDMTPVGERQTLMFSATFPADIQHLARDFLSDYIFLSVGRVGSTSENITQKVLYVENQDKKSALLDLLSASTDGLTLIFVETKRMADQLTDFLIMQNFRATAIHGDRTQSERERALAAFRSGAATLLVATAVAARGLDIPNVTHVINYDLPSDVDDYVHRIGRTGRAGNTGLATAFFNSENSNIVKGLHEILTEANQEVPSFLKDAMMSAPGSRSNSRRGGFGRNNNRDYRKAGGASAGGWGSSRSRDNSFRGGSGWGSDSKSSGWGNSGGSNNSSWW
Chain of Ded1p (wild type, N-terminal His6-tag) (S. cerevisiae), P06634 (P06634 whole entry): as the sequence (P06634 whole entry, one chain of several) above
Chain of HA-tagged Ded1p (His6-Ded1p-HA3) (S. cerevisiae), P06634 (P06634 whole entry): as the sequence (P06634 whole entry, one chain of several) above

relative band intensity (pull-down compared to input) [1]: 96% | Kd (Ded1p-eIF4G complex [2]): 14 nM | Kd (eIF4G [3]): 2100 nM | Kd (Ded1p-eIF4G complex [4]): 0.28 nM | Kd (eIF4G [5]): 1000 nM | Kd (Ded1p-eIF4G complex [6]): 0.14 nM | Kd (eIF4G [7]): 500 nM | stoichiometry N [8]: 1 | Kd (Ded1p-eIF4G complex [9]): 3 pM | Kd (eIF4G [10]): 25 nM
B1: eIF4A (enzyme, S. cerevisiae, UniProt P10081 1-395, looked up)
chain: MSEGITDIEESQIQTNYDKVVYKFDDMELDENLLRGVFGYGFEEPSAIQQRAIMPIIEGHDVLAQAQSGTGKTGTFSIAALQRIDTSVKAPQALMLAPTRELALQIQKVVMALAFHMDIKVHACIGGTSFVEDAEGLRDAQIVVGTPGRVFDNIQRRRFRTDKIKMFILDEADEMLSSGFKEQIYQIFTLLPPTTQVVLLSATMPNDVLEVTTKFMRNPVRILVKKDELTLEGIKQFYVNVEEEEYKYECLTDLYDSISVTQAVIFCNTRRKVEELTTKLRNDKFTVSAIYSDLPQQERDTIMKEFRSGSSRILISTDLLARGIDVQQVSLVINYDLPANKENYIHRIGRGGRFGRKGVAINFVTNEDVGAMRELEKFYSTQIEELPSDIATLLN
notes: eIF4A, DEAD-box RNA helicase, S. cerevisiae, wild type; also called wild-type yeast eIF4A; source: recombinant, purified as described (Hilliker et al., 2011)
